Experimental data: the RNAGym collection of RNA variant scans (doi:10.1073/pnas.2313332121)

B1: TPR t1 (parent)
chain: GACCAAUCUGCCCUCAGAGCUCGAGAACAUCUUCGGAUGCAGAGGAGGCAGGCUUCGGUGGCGCGAUAGCGCCAACGUCCUCAACCUCCAAUGCAUCCCACCACAUGAUGAUGCCUGAAGAGCCUUGGUUUUUUG

Variants of: B1
Test: polymerase ribozyme fitness, log enrichment relative to wild type (log ratio); higher = more active; in vitro selection for triplet polymerase activity
How it was run: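 Fitness measures genotype enrichment against wild-type enrichment on a logarithmic scale, with inverse-variance-weighted averaging of replicates. The logarithm is base 2, and genotypes were kept only with ≥10 input reads and ≥1 read per output in Illumina sequencing. The sequenced libraries came from one triplicate in vitro selection round, including frozen incubation at −7 °C, of PCR-built, transcribed mutant libraries of each subunit of a heterodimeric triplet polymerase ribozyme.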

| Variant | polymerase ribozyme fitness (log ratio) |
| --- | --- |
| GACCAAUCUGCCCUCCGAGCUCGAGAACAUCUUCGGAGGCAGAGGAGGCAGGCUUCGGUGGCGCGAUAGAGCCAACGUCCUCAACCUCCAAUGCAUCCCACCACAUGAUGAUGCCUGAAGAGCCUUGGUUUUUUG [A16C U38G C70A] | -4.31 |
| GACCAAUCAGCCCUCAGAGCUCGAGAACAUCUUCUGAUGCAGAGGAGGCAGGCUUCGGUGGCGCGAUAGCGUCAACAUCCUCAACCUCCAAUGCAUCCCACCACAUGAUGAUGCCUGAAGAGCGUAGGUUUUUUG [U9A G35U C72U G77A C124G U126A] | -5.65 |
| GACCAAUCUGCCCUCAGAGCUCGAGAACAUCUUCGGAUGCAGAGGAGGCAGGCUUCGGUGGCGCGAUAGCGCCAACGUCCUCAACCUCCAAUGCAUCCCACCACCUGAUGAUGUCUGAACAGCCUUGGUUUUUUG [A105C C114U G120C] | -2.29 |
| GACCAAUCUGCCCUCAGAGCUCGAGAACAUCCUCGGAUGCAGAGGAGGCAGGCUUCGGUGGCCCGAUAGCGCCAACGUCCUCAACCUCCAAUGCAUCCCACCACAUGAUGAUGCCUGAAGAGCCUUGGUUUUUUG [U32C G63C] | -0.346 |
| GACCAAUCAGCCCUCAUAGCUCGAGAACAUCUUCGGAUGCAGAGGAGGCAGGCUUCGGUGGCGCGAUAGCGCCAACGCCCUGAACGUCCAAUGCAUCCCACCACAUGAUGAUGCCUGAAGAGCUCUGGUUUUUUG [U9A G17U U78C C82G C86G C124U U125C] | -0.551 |
| GACCAAUGUGCCCUCAGAGCUCGAGAACAUCUUCCGAUGCAGAGGAGGCAGGCUUCGGUGGCGCGAUAGCGCCAACGUCCUCAACCUCUAAUGCAUCCCACCACAUGAUGAUGCCUGAAGAGCCUUGGUUUUUUG [C8G G35C C89U] | -4.98 |
| GACCAAUCUGCCCUCAGAGCUCGAGAACAUCUUCGGAUGCAGAGGAGGCAGGCUUCGGUGGCGCGAUAGCGCCAACGUCCUCAACCUCCAAUGCAUCCCACCACAUGAUGAUGCCUGAAGAGCCUUGGUUAUUUG [U131A] | -0.123 |
| GACCAAUCUGCCCUCAGAGCUCGAGAAAAUCUUCGGAUUCAGGGGAGGCAGGCUUUGGUGUCGGGAUAGCGCCAACGUCCUCAACCUCCAAUGCAUCCCACCACAUGAUGAUGCCUGAACAGCCUUGGUUUUUUG [C28A G39U A43G C56U G61U C64G G120C] | -6.64 |
| GACGAAUGUGCCCUCAGAGCUCGAGGACAUCUUCGGAUGCAGAGGAGGCAGGCUUCGGUGGCGCGAUAGCACCAACGUCCUCAACCUCCAAUGCAUCCCACCACAUGAUGAUGCCUGAAUAGCCUUGGUUUUUUG [C4G C8G A26G G71A G120U] | -1.19 |
| GACCAAUCUGCCCUCAGAGCUCGAGAACAUCUUCGGAUGCAGAGGAGGCAGGCUUGGGUGGCGCGAUAGCGCCAACGUCCUCAACCUCCAUUGCAUCCCACCACAUGAUGCUGCCUGAAGAGCCUUGGUUUUUUG [C56G A91U A111C] | -2.73 |
| GACCAAUCUGCCCUCAGAGCUCGAGAACAUCUUCUGAUGCAAAGGAGGCAGGCUUCGGUGGCGCGAUAGCGCCAACGUCCUCAACCUCCAAUGCAUCCCACCACAUGAUGAUGCCUGAAGAGCCUUGGUUUUUUG [G35U G42A] | -6.8 |
| GACCAAUCUGCCCUCAGAGCUCGAGAACAUCUUCGGAUGCAGAGGAGGCAGGCUUCGGUGGCGUGAUAGCGCCAACGUCCUCAACCUCCAAUGCAUCCCAACACAUGAUGAUGCCUGAAGAGCCUUGGUUUUUUG [C64U C101A] | -1.22 |
| GACCAAUCUGCCCUCAGAGCUCGAGAACAUCUUCGGAUUCAGAGGAGGCAGGCUUCGGUGGCGUGAUAGCGCCAACGUCCUCAACCUCCACUGCAUCCCACCACAUGAUGAUGCCUGAAGAGACUUGGUUUUUUG [G39U C64U A91C C123A] | -1.57 |
| GAUCAAUCUGCCCUCAGAGCUCGAGAACAUCUUCGGAUGCAGAGGAGGCACGCUUCGAUGGCUCGAUAGCGCCAACGUCCUCAACCUCCAAUGCAUCCCACCACAUGAUGAUGCGUGAAGAGCCUUGGUUUUUUG [C3U G51C G58A G63U C115G] | -5.47 |
| GACCAAUCUGCCCUCAGAGCUCGAGAACAUCUUCGGAUGCAGAGGAGGCAGGCUUCGGUGGCGCGAUAGCGCCAAAGUGCUCAACCUCCAAUGCAUCCCACCACAUGAUGAUGCCUGAAGAGCCUUGGUUUUUUG [C76A C79G] | -0.726 |
| GACCAAUCUGCCCUCAGAGCUCGAGAACAUCUUCGGAUGCAGAGUAGGCAGGCUUCGGUGGCGCGAUAGCGGCAACGUCCUCAACCUCCAAUACAUCCCACCACAUGAUGAUGCCUGAAGAGCCUUGGUUUUUUG [G45U C72G G93A] | -2.7 |
| GACCAAUCUGCCCUCAGAGCUCGAGAACAUCUUCGGAUGCAGAGGAGGCAGGCUUAGGUGGCGCGAUGGCGCCAACGUCCUCAACCUCCAAUGCAUCCCACCACAUGAUGAUGCCUGAACAGCCUUGGUUUUUUG [C56A A68G G120C] | -4.19 |
| GACCAAUCUGCCCUCAGAGCUCGAGAACAUCUUCGGAUGCAGAGGAGGCAGGCUUCGGUGGCGCGAUAGCGCCAACGUCCUGAACAUCCAAUGCAUCCCACCACAUGAUGAUGCCUGAAGUGCCUUGGUUUUUUG [C82G C86A A121U] | 1.39 |
| GACCAAUCUGCCCUCACAGCUCGAGAACAUCUUCGGAUGCGGAGGAGGCAGGCUUCGGUGGCGCGAUAGCGCCAACGUCCUCAACCUCCAUUGCAUCCCACCACAUGAUGAUGCCUGAAGAGCCUUGGUUUUUUG [G17C A41G A91U] | -4.31 |
| GACCAAUCUGCCCUCAGAGCUCGAGAACAUCUUCGGAUGCUGAGGAGGCAGGUUUCGGUGGCGCGAUAGCGACAACGUCCUCAACAUCCAAUGCAUCCCACCACAUGAUGAUGUCUGAAGAGCCUUGGGUUUUUG [A41U C53U C72A C86A C114U U129G] | -5.65 |
| GACCAAUCUGCCCUCAGAGCUCGAGAACAUCUUCGGAUGCAGAGGAGGCAGUCUUCGGUGGCGCGAUAGCGUCAACGUCUUCAACCUCCAAUGCAUCUCACCACAUGAUGAUGCCUGAAGAGCCUUGGUUUUUUG [G52U C72U C80U C98U] | -3.28 |
